We go through two molecules from article PMC2192344.

Data set [1] concerns the target T1, His6-Elf-1 (human, UniProt P32519 1-619). Put plainly: EMSA. (A gel shift assay detects complexes by their altered migration in electrophoresis.)
For data set [2], the target named is T1, His6-Elf-1. Put plainly: EMSA. The source holds these as a separate data set.

Read-outs that look alike come from different tables or passages of the source.

T1 sequence (P32519 whole entry): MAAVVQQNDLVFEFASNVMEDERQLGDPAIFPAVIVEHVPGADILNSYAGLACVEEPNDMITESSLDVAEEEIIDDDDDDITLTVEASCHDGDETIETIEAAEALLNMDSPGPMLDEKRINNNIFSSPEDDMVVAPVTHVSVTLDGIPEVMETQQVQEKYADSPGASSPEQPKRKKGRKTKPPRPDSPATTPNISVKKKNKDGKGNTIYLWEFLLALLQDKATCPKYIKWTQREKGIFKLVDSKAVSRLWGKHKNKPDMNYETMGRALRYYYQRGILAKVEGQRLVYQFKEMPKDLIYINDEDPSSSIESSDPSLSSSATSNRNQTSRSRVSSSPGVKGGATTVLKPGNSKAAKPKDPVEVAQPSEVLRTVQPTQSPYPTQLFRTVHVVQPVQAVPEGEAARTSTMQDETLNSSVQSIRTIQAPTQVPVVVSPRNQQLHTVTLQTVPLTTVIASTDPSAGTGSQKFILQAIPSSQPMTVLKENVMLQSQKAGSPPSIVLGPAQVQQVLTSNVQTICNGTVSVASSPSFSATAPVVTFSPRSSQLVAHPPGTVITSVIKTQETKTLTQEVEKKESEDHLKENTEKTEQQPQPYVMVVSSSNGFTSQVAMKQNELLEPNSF

B1: m2 -97/-84 (dsDNA)
DNA 1: AAATACCGGAAGTG
DNA 2: CACTTCCGGTATTT
Take B1: the binding result in data set [1] is on record as “binds”.

B2: m3 -97/-84 (dsDNA)
DNA 1: AAATATCGGAAGTG
DNA 2: CACTTCCGATATTT
For B2, the binding result in data set [2] is given as “no binding”.
